Reference: the Human Domainome abundance scans (Beltran et al. 2025)

B1: POU domain, class 3, transcription factor 3, residues 320 to 388; numbered along this chain, P20264 (parent)
chain: DDLEQFAKQFKQRRIKLGFTQADVGLALGTLYGNVFSQTTICRFEALQLSFKNMCKLKPLLNKWLEEAD

Variants of: B1
Assay: abundance fitness (aPCA) (normalised: wild type 0, dead -1); higher = more abundant; growth selection in yeast, the domain comes from the species named
Settings: Homo sapiens

Abundance fitness: each site, then its substitutions
C42: M -0.284 | Y 0.055 | Q 0.06 | D 0.032 | G -0.014 | N 0.208 | K 0.13 | L -0.193 | I 0.11 | S -0.14 | W -0.38 | T -0.176 | H -0.006 | P -0.276 | R 0.054 | A 0.076
L60: A -0.51 | V -0.309 | S -0.563 | W -0.227 | R -0.491 | K -0.334
A68: E -0.6 | C -0.485
K52: N -0.093
W64: M -0.83 | V -0.305 | T -1.15 | A -0.737 | G -0.77 | Q -0.8 | E -0.792 | S -0.757 | P -0.746 | H -0.778 | L -0.913 | R -0.582 | I -0.715
F44: V -0.678 | K -0.696 | A -1.04 | G -0.772 | M -0.725 | W -0.568 | P -1.02 | R -0.946 | L -0.859
E45: K -0.649 | R -0.891 | A -0.511 | V -0.946 | L -0.628 | M -0.82 | S -0.628 | G -0.982 | Q 0.081 | T -0.729 | F -0.58 | W -0.787 | P -0.803
E66: T -0.132 | C -0.046 | I 0.075 | S -0.502 | G -0.889 | M 0.002 | K -0.123 | F -0.127 | R -0.146 | H 0.082 | D 0.402 | V -0.225 | Y -0.635 | N 0.122 | L -0.428
L47: D -0.661 | C 0.021 | H 0.083 | N 0.599 | S -0.29 | G -0.038 | M 0.113 | R 0.039 | T -0.602 | A -0.342 | V -0.039 | E -0.662 | K -0.111 | F -0.293 | Y -0.131
A46: S -0.059 | T -0.142 | H -0.043 | C -0.299 | M 0.22 | W -0.601 | K 0.205 | V -0.702 | I -0.727 | D -0.573 | G -0.053 | E -0.178 | Q -0.282 | P -0.843 | R -0.277
T40: R -0.583 | Y -0.59 | W -0.441 | S -0.49 | Q -0.102 | V -0.174
K58: V -0.398 | T -0.892 | G -0.852 | L -0.875 | S -0.796 | I -0.416 | C 0.152 | A -0.337 | R 0.031
C55: H -0.199 | I -0.046 | E -0.255 | T -0.186 | L -0.156 | V 0.019 | P -0.874 | S -0.102 | G -0.354 | N -0.102 | Y -0.269 | Q 0.209 | F 0.253 | K -0.009 | M -0.032 | W -0.177
M54: L -0.428 | S -0.483 | I -0.911 | Q -0.7 | P -1.05 | F -0.96 | R -0.909 | T -0.733 | C -0.636 | W -0.801
R43: D -0.402 | M -0.62 | C -0.447 | P -0.975 | K -0.034 | L -0.858 | E -0.076 | H -0.586 | Q -0.113 | G -0.798 | T -0.946 | W -0.866
P59: G -0.166 | Q -0.333 | K -0.247 | E -0.353 | C -0.064 | S -0.398 | M -0.279 | V -0.377 | R -0.389 | W -0.986 | T -0.459 | L -0.378
S50: N -0.922 | E -0.18 | G -0.561 | Q 0.161 | K -0.302 | P 0.034 | A -0.751 | L -0.833 | D -0.074 | F -0.711 | V -1.04 | C -0.786
N62: V 0.148 | W -0.739 | G 0.052 | K -0.12 | H 0.11 | D 0.024 | S 0.03 | L -0.126 | A 0.001 | Q -0.028 | R -0.063
E67: A -0.032 | L 0.333 | S 0.196 | V -0.321 | Q -0.227 | T -0.134 | R -0.015 | G -0.084 | K -0.029
L65: F -0.633 | K -0.211 | G -0.935 | R -0.674 | M -0.185 | Q -0.73 | S -0.58 | T -0.732 | I -0.513 | W -0.297 | C -0.846
K63: S -0.317 | H -0.189 | G -0.074 | A -0.129 | L -0.493 | C -0.147 | Q -0.066 | N -0.261 | Y -0.53 | F -0.149 | D -0.349 | E -0.519 | M -0.435 | V -0.743 | I -0.697 | W -0.658 | P -0.77
L57: W -0.401 | V -0.535 | P 0.029 | M -0.279 | G -0.78 | A -0.602 | K -0.645 | T -0.698 | S -0.572 | E -1.16 | H -0.333 | R -0.715
N53: S -0.257 | H -0.09 | T 0.051 | C -0.255 | I -0.167 | M 0.114 | E 0.049 | R -0.037 | Q -0.044 | P -0.613 | Y -0.357 | F -0.513 | L -0.148 | W -0.102 | D 0.012 | A -0.035 | V -0.306 | G -0.148
L49: P -0.65 | N -0.594 | T -0.846 | H -0.697 | F -0.865 | C -0.873 | V -0.934 | E -0.573 | S -0.649 | A -0.441 | K -0.548 | R -0.385 | Y -0.582 | M -0.078 | W -0.021 | I -1.01
Q48: M -0.599 | G -0.264 | L -0.375 | K -0.177 | W -0.453 | I -0.835 | E -0.088 | S -0.205 | R -0.416 | T -0.187 | A -0.612
K56: C -0.391 | R 0.017 | Y -0.753 | M -0.173 | D -0.163 | S -0.181 | N -0.44 | F -0.11 | G -0.539 | E -0.066 | I -0.063 | L -0.079 | H -0.61 | P -0.848 | W -0.548
F51: D -0.14 | T 0.061 | E 0.115 | Y -0.247 | M -0.231 | A -0.081 | G -0.136 | V 0.013 | I -0.51 | H 0.051 | N -0.002 | P 0.064 | C -0.416 | R 0.035 | W -0.567 | Q 0.142 | S -0.002 | K 0.132
L61: W -0.881 | I -0.696 | Q -0.811 | R -0.97 | K -0.66 | A -0.803 | V -0.513 | T -0.513 | P -0.928 | E -0.99 | S -0.977 | C -0.796 | G -0.891 | M -0.522
